In patent US20240301064A1 (published 2024):

What was measured:
mouse MAdCAM = biological target: T1, mouse MAdCAM (mouse, UniProt Q61826 22-364); experiment: BLI, antibody on AHC tip, soluble MAdCAM
T1 sequence (looked up): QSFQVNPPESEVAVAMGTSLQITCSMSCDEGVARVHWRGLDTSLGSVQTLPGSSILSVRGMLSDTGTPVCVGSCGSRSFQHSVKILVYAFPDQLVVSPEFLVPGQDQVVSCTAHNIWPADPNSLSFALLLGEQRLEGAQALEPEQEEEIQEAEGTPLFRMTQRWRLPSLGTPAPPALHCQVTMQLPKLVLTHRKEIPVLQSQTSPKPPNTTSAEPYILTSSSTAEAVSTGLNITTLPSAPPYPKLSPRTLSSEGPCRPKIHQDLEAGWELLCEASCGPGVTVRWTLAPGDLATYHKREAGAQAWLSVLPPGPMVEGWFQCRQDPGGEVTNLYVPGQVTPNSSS
Procedure: (§1) Anti-human IgG Fc (AHC) biosensors were equilibrated in assay buffer for 20 minutes. Test article was diluted to 10 μg/mL in assay buffer (lx PBS, 1% BSA, 0.05% Tween20). A seven-point serial dilution of human and cynomolgus PD-1 or human, cynomolgus and mouse MAdCAM was prepared in assay buffer, starting at 1000 nM down to 15.625 nM. For PD-1 binding, test article was loaded on tips for 180 s followed by a 180 s association phase with PD-1 and 240 s dissociation phase in assay buffer. For MAdCAM binding, test article was loaded on tips for 180 s followed by a 120 s association phase with MAdCAM and 180 s dissociation phase in assay buffer. […] Accordingly, PMAB65 binds human, cyno, and mouse PD-1 and MAdCAM.

human MAdCAM = biological target: T2, human MAdCAM (human, UniProt Q13477 19-317, limits assumed); experiment: BLI, antibody on AHC tip, soluble MAdCAM
T2 construct: also called huMAdCAM
T2 sequence (looked up): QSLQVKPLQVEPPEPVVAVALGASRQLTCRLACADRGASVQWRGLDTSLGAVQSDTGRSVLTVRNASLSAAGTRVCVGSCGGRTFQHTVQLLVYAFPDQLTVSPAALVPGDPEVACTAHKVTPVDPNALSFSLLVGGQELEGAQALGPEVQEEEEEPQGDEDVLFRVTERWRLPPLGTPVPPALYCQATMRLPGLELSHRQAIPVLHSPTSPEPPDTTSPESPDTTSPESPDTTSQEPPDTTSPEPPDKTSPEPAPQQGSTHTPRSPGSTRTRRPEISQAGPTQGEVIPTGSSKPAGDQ
Procedure: as §1

cynomolgus MAdCAM = biological target: T3, cynomolgus MAdCAM (cynomolgus); experiment: BLI, antibody on AHC tip, soluble MAdCAM
T3 chain: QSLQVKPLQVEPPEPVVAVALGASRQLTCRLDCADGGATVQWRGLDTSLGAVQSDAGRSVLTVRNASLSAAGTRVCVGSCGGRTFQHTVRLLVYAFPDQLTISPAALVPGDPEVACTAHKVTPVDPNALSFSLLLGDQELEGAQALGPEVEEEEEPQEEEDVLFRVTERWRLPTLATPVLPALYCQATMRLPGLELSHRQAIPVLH
Procedure: as §1

mouse PD-1 = biological target: T4, mouse PD-1 (mouse, UniProt Q02242 25-167, limits assumed); experiment: BLI, antibody on AHC tip
T4 sequence (looked up): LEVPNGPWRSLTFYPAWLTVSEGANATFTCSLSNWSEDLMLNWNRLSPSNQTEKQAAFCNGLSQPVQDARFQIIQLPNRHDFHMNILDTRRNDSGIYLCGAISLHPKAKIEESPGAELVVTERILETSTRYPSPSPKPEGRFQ

cynomolgus PD-1 = biological target: T5, cynomolgus PD-1 (cynomolgus); experiment: BLI, antibody on AHC tip, soluble PD-1
T5 construct: also called cyno PD-1

human PD-1 = biological target: T6, human PD-1 (human, UniProt Q15116 25-167, limits assumed); experiment: BLI, antibody on AHC tip, soluble PD-1
T6 construct: also called huPD-1
T6 sequence (Q15116 25-167 limits assumed): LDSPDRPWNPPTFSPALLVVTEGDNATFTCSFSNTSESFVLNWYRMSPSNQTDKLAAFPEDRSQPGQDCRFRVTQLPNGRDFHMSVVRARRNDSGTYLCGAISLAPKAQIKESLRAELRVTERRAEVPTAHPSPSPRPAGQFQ

[1] = biological target: PD-1 on PD-1 reporter Jurkat cells; experiment: cell-based or functional assay

B1: PMAB65 (bispecific antibody, human IgG1, kappa)
heavy: EVQLLESGGGLVQPGGSLRLSCAASGFTFSSYDMSWVRQAPGKGLEWVSGITISGGSTYYADSVKGRFTISRDNSKNTLYLQMNSLRAEDTAVYYCARGRGGSGWLDYWGQGTTVTVSSASTKGPSVFPLAPSSKSTSGGTAALGCLVKDYFPEPVTVSWNSGALTSGVHTFPAVLQSSGLYSLSSVVTVPSSSLGTQTYICNVNHKPSNTKVDKKVEPKSCDKTHTCPPCPAPEAAGAPSVFLFPPKPKDTLMISRTPEVTCVVVDVSHEDPEVKFNWYVDGVEVHNAKTKPREEQYNSTYRVVSVLTVLHQDWLNGKEYKCKVSNKALPAPIEKTISKAKGQPREPQVYTLPPSREEMTKNQVSLTCLVKGFYPSDIAVEWESNGQPENNYKTTPPVLDSDGSFFLYSKLTVDKSRWQQGNVFSCSVMHEALHNHYTQKSLSLSPGGGGGSGGGGSGGGGSEVQLLESGGGLVQPGGSLRLSCAASGFTFSSYWMHWVRQAPGKGLEWVSYISGSGGYTNYADSVKGRFTISRDNSKNTLYLQMNSLRAEDTAVYYCARDRPYYYDMDVWGKGTTVTVSSGGGGSGGGGSGGGGSGGGGSDIQMTQSPSSLSASVGDRVTITCRASQSISSSLAWYQQKPGKAPKLLIYAASSLQSGVPSRFSGSGSGTDFTLTISSLQPEDFATYYCQQYKSYPVTFGQGTKVEIK
light: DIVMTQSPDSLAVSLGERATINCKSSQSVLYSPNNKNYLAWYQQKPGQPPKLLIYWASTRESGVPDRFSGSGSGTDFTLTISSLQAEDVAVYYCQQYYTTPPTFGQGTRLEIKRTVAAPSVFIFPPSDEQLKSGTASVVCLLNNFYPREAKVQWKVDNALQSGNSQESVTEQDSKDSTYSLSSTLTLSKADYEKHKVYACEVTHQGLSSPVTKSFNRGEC
Kd (mouse MAdCAM): 269 nM
Kd (human MAdCAM): 75.5 nM
Kd (cynomolgus MAdCAM): 24.3 nM
binding result (mouse PD-1): no binding
Kd (cynomolgus PD-1): 30.3 nM
Kd (human PD-1): 32.6 nM
PD-1 reporter Jurkat cells on test-article-loaded MAdCAM-expressing CHO cells; EC50 [1]: 0.78 nM
SHP-2 recruitment, Ig-tethered test article, PD-1 reporter Jurkat cells; EC50 [1]: 3.04 nM
